Data from US20130231277A1 (NEW YORK UNIVERSITY, published 2013).

Assays:
[1] = target: FGFR1c endogenously expressed by HEK293 cells transiently transfected with murine βKlotho (UniProt P11362 22-822); test: cell-based or functional assay
[2] = target: T1, 1:1 complex of FGFR1c ligand-binding domain and αKlotho ectodomain (human; murine, UniProt P11362 142-365; O35082 35-982); test: SPR; FGF21 immobilized, 1:1 FGFR1c-αKlotho complex passed over the chip (FIG. 1D)
T1 construct: also called FGFR1c-αKlotho complex; binary FGFR1c-αKlotho complex; not shown: C-terminal FLAG tag
T1 sequence 1: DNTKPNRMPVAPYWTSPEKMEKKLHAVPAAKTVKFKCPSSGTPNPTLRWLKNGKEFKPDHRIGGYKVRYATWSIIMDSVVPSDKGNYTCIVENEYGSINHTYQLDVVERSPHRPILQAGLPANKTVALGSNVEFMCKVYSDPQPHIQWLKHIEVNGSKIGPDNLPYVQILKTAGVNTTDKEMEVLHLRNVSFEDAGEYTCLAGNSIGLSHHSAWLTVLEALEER
T1 sequence 2: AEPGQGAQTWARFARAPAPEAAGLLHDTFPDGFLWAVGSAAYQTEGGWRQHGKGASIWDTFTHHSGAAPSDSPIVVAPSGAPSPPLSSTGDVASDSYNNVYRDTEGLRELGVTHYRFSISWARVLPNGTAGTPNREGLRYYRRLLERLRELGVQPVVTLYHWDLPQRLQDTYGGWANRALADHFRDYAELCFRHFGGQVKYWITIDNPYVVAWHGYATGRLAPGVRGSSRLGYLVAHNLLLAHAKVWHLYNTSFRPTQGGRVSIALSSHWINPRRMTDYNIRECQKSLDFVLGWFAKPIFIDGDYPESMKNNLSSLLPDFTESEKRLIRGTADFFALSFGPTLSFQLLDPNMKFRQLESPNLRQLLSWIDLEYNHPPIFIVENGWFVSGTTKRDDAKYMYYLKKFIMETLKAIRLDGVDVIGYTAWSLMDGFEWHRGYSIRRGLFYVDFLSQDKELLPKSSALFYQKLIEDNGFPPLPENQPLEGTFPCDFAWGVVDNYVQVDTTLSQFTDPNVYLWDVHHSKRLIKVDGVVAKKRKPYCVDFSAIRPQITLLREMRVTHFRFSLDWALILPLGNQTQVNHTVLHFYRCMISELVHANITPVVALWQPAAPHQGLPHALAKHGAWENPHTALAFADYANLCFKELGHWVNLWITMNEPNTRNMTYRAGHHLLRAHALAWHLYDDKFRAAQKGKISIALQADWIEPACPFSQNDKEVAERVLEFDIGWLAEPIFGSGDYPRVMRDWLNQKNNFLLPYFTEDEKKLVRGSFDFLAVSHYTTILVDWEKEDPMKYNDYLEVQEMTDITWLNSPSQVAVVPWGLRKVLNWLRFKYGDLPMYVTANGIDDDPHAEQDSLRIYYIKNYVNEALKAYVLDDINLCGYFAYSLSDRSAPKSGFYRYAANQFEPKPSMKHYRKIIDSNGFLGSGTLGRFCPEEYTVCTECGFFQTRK

[3] = target: T2, ectodomain of murine βKlotho (F53 to L995 of SEQ ID NO: 218) with a C-terminal FLAG tag (murine, UniProt Q99N32 53-995); test: SPR competition; FGF21 immobilized, fixed βKlotho ectodomain mixed with increasing FGF21 (FIG. 7A)
T2 construct: Expressed in HEK293 cells and purified from culture media; also called βKlotho ectodomain; not shown: C-terminal FLAG tag
T2 sequence: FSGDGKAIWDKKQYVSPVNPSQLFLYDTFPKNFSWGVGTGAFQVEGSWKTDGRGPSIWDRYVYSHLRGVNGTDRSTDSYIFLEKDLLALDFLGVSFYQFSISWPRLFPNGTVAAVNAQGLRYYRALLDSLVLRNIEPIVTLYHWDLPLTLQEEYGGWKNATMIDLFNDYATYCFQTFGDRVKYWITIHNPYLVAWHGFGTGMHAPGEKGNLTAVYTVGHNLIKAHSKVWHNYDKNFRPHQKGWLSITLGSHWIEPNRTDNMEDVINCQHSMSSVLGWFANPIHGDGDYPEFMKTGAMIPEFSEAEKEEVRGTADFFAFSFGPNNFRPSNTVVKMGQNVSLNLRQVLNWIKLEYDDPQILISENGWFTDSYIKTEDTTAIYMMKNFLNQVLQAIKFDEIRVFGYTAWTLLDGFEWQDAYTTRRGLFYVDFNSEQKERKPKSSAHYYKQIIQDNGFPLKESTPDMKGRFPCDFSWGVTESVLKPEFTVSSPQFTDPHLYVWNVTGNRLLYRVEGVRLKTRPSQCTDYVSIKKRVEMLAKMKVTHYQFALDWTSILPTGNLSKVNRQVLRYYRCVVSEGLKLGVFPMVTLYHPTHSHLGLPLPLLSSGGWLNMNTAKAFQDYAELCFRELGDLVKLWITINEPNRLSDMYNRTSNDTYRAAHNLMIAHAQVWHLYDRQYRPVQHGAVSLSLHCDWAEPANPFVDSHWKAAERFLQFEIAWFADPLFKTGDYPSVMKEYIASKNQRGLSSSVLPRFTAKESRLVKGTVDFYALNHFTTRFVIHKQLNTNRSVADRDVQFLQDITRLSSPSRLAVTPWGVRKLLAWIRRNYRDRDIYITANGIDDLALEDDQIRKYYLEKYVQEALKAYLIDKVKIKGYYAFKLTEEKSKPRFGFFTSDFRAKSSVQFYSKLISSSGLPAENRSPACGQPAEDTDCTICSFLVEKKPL
Protocol: Increasing concentrations of FGF21 were mixed with a fixed concentration of βKlotho ectodomain, and the mixtures were passed over a FGF21 chip. […] Increasing concentrations of FGF21²⁹⁻¹⁹⁰/FGF19¹⁹⁷⁻²¹⁶ chimera were mixed with a fixed concentration of βKlotho ectodomain, and the mixtures were passed over a FGF21 chip. […] The figure was created from the data shown in FIGS. 7A-B, which are representative of two independent experiments.
SPR experiments were performed on a Biacore 2000 instrument (Biacore AB), and all the protein-protein and protein-peptide interactions were studied at 25° C. in HBS-EP buffer (10 mM HEPES-NaOH, pH 7.4, 150 mM NaCl, 3 mM EDTA, 0.005% (v/v) polysorbate 20). Proteins were immobilized by amine coupling on flow channels of research grade CM5 chips (Biacore AB). Proteins were injected over a CM5 chip at a flow rate of 50 μl min⁻¹, and at the end of each protein injection (180 s), HBS-EP buffer (50 μl min⁻¹) was flowed over the chip to monitor dissociation for 180 s. In experiments where βKlotho binding to FGFR was analyzed, the chip surface was then regenerated by injecting 50 μl of 2.0 M NaCl in 10 mM sodium/potassium phosphate, pH 6.5. In experiments where α/βKlotho binding to FGF19/21/23 or binding of the FGFR1c-βKlotho complex to FGF21 was studied, 2.0 M NaCl in 10 mM sodium acetate, pH 4.5 was used for chip regeneration. […]

Sequence of FGFR1c endogenously expressed by HEK293 cells transiently transfected with murine βKlotho (P11362 22-822): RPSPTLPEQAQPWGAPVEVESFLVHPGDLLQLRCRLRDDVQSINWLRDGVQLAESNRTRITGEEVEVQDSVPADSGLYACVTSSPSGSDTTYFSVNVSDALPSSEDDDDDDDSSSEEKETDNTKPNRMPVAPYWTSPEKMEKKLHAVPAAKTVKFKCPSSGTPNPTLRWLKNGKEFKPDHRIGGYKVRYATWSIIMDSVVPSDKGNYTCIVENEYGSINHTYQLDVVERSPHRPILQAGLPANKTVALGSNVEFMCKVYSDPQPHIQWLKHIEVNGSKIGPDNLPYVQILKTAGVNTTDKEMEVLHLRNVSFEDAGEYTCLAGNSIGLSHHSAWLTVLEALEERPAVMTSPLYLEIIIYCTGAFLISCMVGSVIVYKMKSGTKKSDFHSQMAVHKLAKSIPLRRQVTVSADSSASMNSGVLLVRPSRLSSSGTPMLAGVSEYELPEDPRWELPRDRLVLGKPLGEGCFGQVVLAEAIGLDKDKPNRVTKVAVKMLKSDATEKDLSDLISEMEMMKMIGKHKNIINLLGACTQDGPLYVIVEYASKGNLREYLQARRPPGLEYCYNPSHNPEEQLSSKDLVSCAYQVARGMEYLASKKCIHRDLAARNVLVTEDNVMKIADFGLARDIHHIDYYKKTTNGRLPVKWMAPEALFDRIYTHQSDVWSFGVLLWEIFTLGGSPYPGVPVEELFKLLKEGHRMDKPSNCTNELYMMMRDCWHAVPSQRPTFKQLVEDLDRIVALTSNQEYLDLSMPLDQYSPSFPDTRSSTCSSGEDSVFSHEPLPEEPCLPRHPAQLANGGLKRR

Induction of Egr1 protein expression (immunoblot, HEK293 cells co-expressing FGFR1c and βKlotho) [1]: > 3 fold greater concentration than the 30 ng ml^-1 of the Q104M mutant
binding result [2]: no binding
binding result [3]: binds
B1: human FGF21, secreted bioactive form (H29 to S209 of SEQ ID NO: 100) (ligand)
chain: HPIPDSSPLLQFGGQVRQRYLYTDDAQQTEAHLEIREDGTVGGAADQSPESLLQLKALKPGVIQILGVKTSRFLCQRPDGALYGSLHFDPEACSFRELLLEDGYNVYQSEAHGLPLHLPGNKSPHRDPAPRGPARFLPLPGLPPALPEPPGILAPQPPDVGSSDPLSMVGPSQGRSPSYAS
notes: Used both immobilized on the SPR chip and in solution; also called wild-type FGF21; native FGF21
